{"source": "patent US20220411514A1", "about": "“ANTI-GAL3 ANTIBODIES AND METHODS OF USE FOR INSULIN RESISTANCE” (TrueBinding, Inc., priority 2021, published 2022)", "molecules": {"B1": {"name": "2D10-hVH4-HVL1: anti-Gal3 antibody, VH SEQ ID NO: 806, VL SEQ ID NO: 821 (antibody, V domains shown)", "VH": "QVQLVQSGAEVKKPGASVKVSCKASGYTFTDYYINWVRQAPGQRLEWMGWIYPGSQDTKYNEKFQGRVTLTVDTSASTAYMELSSLRSEDTAVYFCANYFGSSGWFFDVWGQGTMVTVSS", "VL": "DIVMTQSPLSLPVTPGEPASISCRSSKSLLHSDGITYLYWYLQKPGQSPQLLIYRMSNRASGVPDRFSGSGSGTDFTLKISRVEAEDVGVYYCAQMIEFPLTFGQGTKLEIK", "modifications": "VH-80 Peptide Sequence; VL-78 Peptide Sequence"}, "B2": {"name": "20H5.A3-VH3VL1: anti-Gal3 antibody, VH SEQ ID NO: 814, VL SEQ ID NO: 829 (antibody, V domains shown)", "VH": "QIQLVQSGSELKKPGASVKVSCKASGYAFTTYGMSWVRQAPGQGLEWMGWVNTYSGVPTYADDFTGRFVFSLETSVSTAYLQISSLKAEDTAVYFCARGPYAMDYWGQGTLVTVSS", "VL": "DIQMTQSPSSLSASVGDRVTITCQASQDISNYLNWYQQKPGKAPKLLIYYTSSLLTGVPSRFSGSGSGTDYTFTISSLQPEDIATYYCQQYSKLPYTFGQGTKLEIK", "modifications": "VH-88 Peptide Sequence; VL-86 Peptide Sequence"}, "B3": {"name": "20H5.A3-VH6VL3: anti-Gal3 antibody, VH SEQ ID NO: 820, VL SEQ ID NO: 835 (antibody, V domains shown)", "VH": "QVQLVQSGFELKKPGASVKISCKASGYAFTTYGMSWVRQAPGQGLEWMGWVNTYSGVPTSAQAFTGRFVFSLDTSVSTAYLQISSLKAEDTAVYYCARGPYAMDYWGQGTLVTVSS", "VL": "DIQMTQSPSSLSASVGDRVTITCRASQDISNYLNWYQQKPGKAPKLLIYYTSSLLSGVPSRFSGSGSGTDYTLTISSLQPEDFATYYCQQYSKLPYTFGQGTKLEIK", "modifications": "VH-94 Peptide Sequence; VL-92 Peptide Sequence"}, "B4": {"name": "20H5.A3-VH6VL1: anti-Gal3 antibody, VH SEQ ID NO: 819, VL SEQ ID NO: 834 (antibody, V domains shown)", "VH": "QVQLVQSGFELKKPGASVKISCKASGYAFTTYGMSWVRQAPGQGLEWMGWVNTYSGVPTSAQAFTGRFVFSLDTSVSTAYLQISSLKAEDTAVYYCARGPYAMDYWGQGTLVTVSS", "VL": "DIQMTQSPSSLSASVGDRVTITCQASQDISNYLNWYQQKPGKAPKLLIYYTSSLLTGVPSRFSGSGSGTDYTFTISSLQPEDIATYYCQQYSKLPYTFGQGTKLEIK", "modifications": "VH-93 Peptide Sequence; VL-91 Peptide Sequence"}, "B5": {"name": "20H5.A3-VH5VL1: anti-Gal3 antibody, VH SEQ ID NO: 817, VL SEQ ID NO: 832 (antibody, V domains shown)", "VH": "QVQLVQSGFELKKPGASVKISCKASGYAFTTYGMSWVRQAPGQGLEWMGWVNTYSGVPTYAQAFTGRFVFSLDTSVSTAYLQISSLKAEDTAVYYCARGPYAMDYWGQGTLVTVSS", "VL": "DIQMTQSPSSLSASVGDRVTITCQASQDISNYLNWYQQKPGKAPKLLIYYTSSLLTGVPSRFSGSGSGTDYTFTISSLQPEDIATYYCQQYSKLPYTFGQGTKLEIK", "modifications": "VH-91 Peptide Sequence; VL-89 Peptide Sequence"}, "B6": {"name": "20H5.A3-VH3VL3: anti-Gal3 antibody, VH SEQ ID NO: 815, VL SEQ ID NO: 830 (antibody, V domains shown)", "VH": "QIQLVQSGSELKKPGASVKVSCKASGYAFTTYGMSWVRQAPGQGLEWMGWVNTYSGVPTYADDFTGRFVFSLETSVSTAYLQISSLKAEDTAVYFCARGPYAMDYWGQGTLVTVSS", "VL": "DIQMTQSPSSLSASVGDRVTITCRASQDISNYLNWYQQKPGKAPKLLIYYTSSLLSGVPSRFSGSGSGTDYTLTISSLQPEDFATYYCQQYSKLPYTFGQGTKLEIK", "modifications": "VH-89 Peptide Sequence; VL-87 Peptide Sequence"}, "B7": {"name": "20H5.A3-VH4VL1: anti-Gal3 antibody, VH SEQ ID NO: 816, VL SEQ ID NO: 831 (antibody, V domains shown)", "VH": "QIQLVQSGSELKKPGASVKVSCKASGYAFTTYGMSWVRQAPGQGLEWMGWVNTYSGVPTSADDFTGRFVFSLETSVSTAYLQISSLKAEDTAVYFCARGPYAMDYWGQGTLVTVSS", "VL": "DIQMTQSPSSLSASVGDRVTITCQASQDISNYLNWYQQKPGKAPKLLIYYTSSLLTGVPSRFSGSGSGTDYTFTISSLQPEDIATYYCQQYSKLPYTFGQGTKLEIK", "modifications": "VH-90 Peptide Sequence; VL-88 Peptide Sequence"}, "B8": {"name": "20H5.A3-VH5VL3: anti-Gal3 antibody, VH SEQ ID NO: 818, VL SEQ ID NO: 833 (antibody, V domains shown)", "VH": "QVQLVQSGFELKKPGASVKISCKASGYAFTTYGMSWVRQAPGQGLEWMGWVNTYSGVPTYAQAFTGRFVFSLDTSVSTAYLQISSLKAEDTAVYYCARGPYAMDYWGQGTLVTVSS", "VL": "DIQMTQSPSSLSASVGDRVTITCRASQDISNYLNWYQQKPGKAPKLLIYYTSSLLSGVPSRFSGSGSGTDYTLTISSLQPEDFATYYCQQYSKLPYTFGQGTKLEIK", "modifications": "VH-92 Peptide Sequence; VL-90 Peptide Sequence"}}, "data": [{"test_system": "GLUT4 translocation in L6 GLUT4myc myoblasts", "assay": "Insulin-stimulated GLUT4 translocation with Gal3 and anti-Gal3 antibody", "assay_type": "cell-based, rat", "details": "30 μg/mL Gal3 pre-incubated with 60 μg/mL antibody, 100 nM insulin", "protocol": "Rat L6 GLUT4myc myoblasts (Kerafast #ESK202-FP) express a Myc-tagged GLUT4 that can be detected with an anti-Myc antibody. These cells were grown in a 48-well plate in MEM u growth media (Gibco, #12-571-063)+10% fetal bovine serum (FBS; Corning #35-016-CV) until 90-95% confluence was reached. Cells were then washed in PBS and serum starved for 2 hours in MEM u growth media without FBS. Thirty (30) μg/mL recombinant human Gal3 (TrueBinding QCB200347) was pre-incubated with 60 μg/mL anti-Gal3 antibodies for 30 minutes before being added to the serum-starved cells for 1 hour at 37° C. At the end of incubation, half of the cells were treated with 100 nM insulin (Sigma-Aldrich #I5523-50MG) for 20 minutes while the other half acted as basal controls. After 20 minutes, cells were washed quickly with ice cold PBS twice, then incubated with 4% paraformaldehyde (Boster Bio #AR1068) for 10 minutes on ice followed by 10 minutes at room temperature. The cells were washed three times with PBS, then blocked with 0.5 mL 5% goat serum (Vector Laboratories #101098-382) in PBS for 15 minutes. After the blocking agent was aspirated from the cells, 1 μg/ml anti-Myc polyclonal antibody (Sigma-Aldrich #C-3956) in 5% goat serum was added for 1 hour. […] Primary antibody was aspirated away, and then cells washed 5 times with PBS. Next, cells (including background controls) were incubated with 1:1000 goat anti rabbit antibody secondary antibody (Abcam #Ab97051) in 5% Goat serum for 30 minutes at room temperature. After washing, cells were incubated with 400 μL of TMB (Thermo Scientific #PI34029) for 5 minutes, then 200 μL of 1N HCL (Avantor Performance #JT5620-2) was added to stop the reaction. 100 μL of the sample was transferred to a 96 well plate with duplicates transferred for each condition. Samples were read at 450 nm on a SpectraMax plate reader. […] The fold changes were plotted on GraphPad Prism and presented as mean (SEM) of the technical replicates. Statistical significance was determined using unpaired T-tests comparing samples treated with Gal3 and insulin with all other conditions.", "values": [{"molecule": "B1", "effect on Gal3 block of insulin-stimulated GLUT4 translocation": "reduce the ability of Gal3 to block GLUT4 translocation"}, {"molecule": "B2", "effect on Gal3 block of insulin-stimulated GLUT4 translocation": "reduce the ability of Gal3 to block insulin-dependent GLUT4 translocation"}, {"molecule": "B3", "effect on Gal3 block of insulin-stimulated GLUT4 translocation": "reduce the ability of Gal3 to block insulin-dependent GLUT4 translocation"}, {"molecule": "B4", "effect on Gal3 block of insulin-stimulated GLUT4 translocation": "reduce the ability of Gal3 to block insulin-dependent GLUT4 translocation"}, {"molecule": "B5", "effect on Gal3 block of insulin-stimulated GLUT4 translocation": "reduce the ability of Gal3 to block insulin-dependent GLUT4 translocation"}, {"molecule": "B6", "effect on Gal3 block of insulin-stimulated GLUT4 translocation": "reduce the ability of Gal3 to block insulin-dependent GLUT4 translocation"}, {"molecule": "B7", "effect on Gal3 block of insulin-stimulated GLUT4 translocation": "reduce the ability of Gal3 to block insulin-dependent GLUT4 translocation"}, {"molecule": "B8", "effect on Gal3 block of insulin-stimulated GLUT4 translocation": "reduce the ability of Gal3 to block insulin-dependent GLUT4 translocation"}]}]}
